# Laboratory results published in the nanobody polyreactivity screen of Harvey et al. (2022).
# Experiment: yeast display, Sf9 membrane polyspecificity reagent, FACS + sequencing; frameworks hold sequencing errors
# In short: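 In a synthetic yeast display library (Saccharomyces cerevisiae BJ5465), nanobody expression was induced with galactose for 36–48 hours. FACS gates were set low and high (top ~1%) using anti-HA fluorescence for expression and streptavidin fluorescence for binding of the Sf9 membrane reagent. Each polyreactivity label is drawn from the gate of origin.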
row,Sequence,polyreactivity (PSR sort gate)
1,QVQLVESGGGLVQAGGSLRLSCAASGSTFVLNAMGWYRQAPGKERELVAAISSGGRTYYADSVKGRFTISRDNAKNTVYLQMNSLKPEDTAVYYCAAKPYRGGHRTLFGYWGQGTQVTVSS,high polyreactivity
2,QVQLVESGGGLVQAGGSLRLSCAASGRTFSEYAMGWYRQAPGKERELVAAITRSGGGTYYADSVKGRFTISRDNAKNTVYLQMNSLKPEDTAVYYCATQSFSPYDYTDEYWGQGTQVTVSS,high polyreactivity
3,QVQLVESGGGLVQAGGILRLSCAAAGGTLYYYMGWYRQAPGKESEFVAAINIRGDSTYYADSVKGRFTISRDNAKNTVYLQMNSLKPEDTAVYYCAADLPRRSAHYYYWGQGTLVTVSS,low polyreactivity
4,QVQLVESGGGLVQAGGSLRLSCAASGSTFYKYAMGWYRQAPGKERELVAVINYRGGSTYYADSVKGRFTISRDNAKNTVYLQMNSLKPEDTAVYYCAARQYWQNRRQYYYWGQGTQVTVSS,high polyreactivity
5,QVQLVESGGGLVQAGGSLRLSCAASGRIISAYAMGWYRQAPGKERELVAAITGSGGSTYYADTVKGRFTISRDNAKKTVYLQMNSRKPEDTAVYYCAAKIDYPDARYFPYRYYYWGQGTQVTVSS,high polyreactivity
6,QVQLVESGGGLVQAGGSLRLSCAASGITFKPYAMGWYRQAPGKERELVATITFRGGSTYYADSVKGRFTISRDNAKNTVYLQMNSLNPEDTAVYYCAAVTRRYVLSTFYYWGQGTQVTVSS,high polyreactivity
7,QVQLVESGGGLVQAGGSLRLSCAASGLIFGSYAMGWSRQAPGKERELVAAISRSGGSTYYADSVKGRFTISRDNAKNTVYLQMNSLKPEDTAVYYCAARGYPLGIGRIKRNYWGQGTQVTVAS,high polyreactivity
8,QVHLVESGGGLVQAGGSLRLSCAASGSILSINGRGWSRQAPGKERELVATIDGSDGSTFYADSVKGRFTISRDNAKNTVYLQMNSLKPEDTAVYYCAAENFWQTKEYDYWGQGTQVTVSS,low polyreactivity
9,QVQLVESGGGLVQAGGSLRLSCDASGRIFVVYAMGWSRQAPGKERELVAAITGGGRTNYADSVKGRFTISRDNAKNTVYLQMNSLKPEDTAVYYCAAGTRSDARRYYYWGQGTQVTVSS,low polyreactivity
10,QVQLEESGGGFVQAGGSLRLSCAASGFIFRRYAMGWYRQAPGKERELVAAISWRSGSTYYADSVKGRFTISRDNAKNTVYSPMKCLKPEDTAVYYCAAKDQATYQLYYWGQGTQVTVSS,high polyreactivity
11,QVQLVESGGGLVQAGGSLRFSCAASGRIFWYYVMGWDRQAPGKEREFVASISSGGSTYYADSVKGRFTISRDNANNTVYLQMNSLKPEDTAVYYCNAYVYGQRVWYDYWGQGTQVTVSS,high polyreactivity
12,QVQLVESGGGLVQAGGSLRLSCAASGSIFSYYTMGWYRQAPGKERELVAAISFRGTSTYYADSVKGRFTISRDNAKNTVYLQMNSLKPEDTAVYYCAKRALYYPTYPKYDTYNRYYWGQGTQVTVSS,high polyreactivity
13,QVQLVESGGGLVQAGGSLRLSCAASGFIWSYVMGWYRQAPGKESQLVAAISRSCGRTYYADSVKGRFTISRDNAKNTVYLQMNSLKPEDTAVYYCAKDGGWSRLHYNYWGQGNQVTVSS,high polyreactivity
14,QVQLVESGGGLVQAGGSLRLSCAASGSTFVVYAMGWYRQAPGKERELVAAIDLSVGDTYYADSVKGRFTISRDNAKNTVYLQMNSLKPEDTAVYYCAAEFYSYKYPDYDYWGQGTQVTVSS,low polyreactivity
15,QVQLVESGGGIVQAGGSLRLSCAASGGTFHYYAMGWYRQAPGKERELVAAINRSGDSTYYADSVKGRFTISRDNSKNTVYLQMNSLKPEDTAVYYCAVSYYGADGNPFPHDYWGQGTQVTVSS,low polyreactivity
16,QVQLVDSGGGLDQAGGSLRLSCAAAGSIFYSYAMGWYSQATGKDSELVADISSDGSTNYADSVKGRFTISRDNAKNTVYVQINSLKPEDTAVYYCAKKPSSARYVTIGFDEWGHGTQVTVSS,low polyreactivity
17,QVQLVESGGGLVQAGGSLRLSCAASGNNFETNAMGWYRQAPGKERELVAAISASGGSTYYADSVKGRFTISRDYAKNTVYLQMNSLKPEDTAVYYCAARRAVRLYYWGQGTQVTVSS,high polyreactivity
18,QVQLVESGGGLVQAGGSLRLSCAASGSIFIAYGMVWYRQEPGKERELVAAITVSGGNTYYADSVKGRFTISRDNAKNTVYLQMNSLKPEDTAVYYCAADYWYYYGKVLYDYWGQGTQVTVSS,low polyreactivity
19,QVQLVESGGGLVQAGGSLRLSCAASGITFGRNTMGWYRQAPGKERELVAAIDSGGNTYADSVKGRFTISRDNAKNTVYLLMNSLKPDDTAVYYCAVDGGEFSSYVYWGQGTQVTVSS,low polyreactivity
20,QVQLLESGGGLVQAGGSLRLSCAASGLIFGENAMGWYRQAPGKERELVAAISRRAGITYYADSVKGRFTISRDNAKNTVYLQMNSLKPEDTAVYYCAAQYYLYRSRFDYWGQGTQVTVSS,high polyreactivity
21,QVQLVESGGGLVQAGGILRLSCASSGRTFAWYAMGWYRPAPGKERELVAAITTRGSGTYYADSVKGRFTISRDNAKNTVYLQMNSLKPEDTAVYYGAKDPITATTLDERVYYWGQGTQLTVSS,low polyreactivity
22,QVQLVESGGGLVQAGGSLRLSCSASGFIFPRYTMGWYRQAPGKERELVAGITLRGGSTYYADSVKGRFTISRDNAKNTVYLQMNSLKPDDTAVYYCARGISRGRSFGIGYDYWGQGTQVTVSS,low polyreactivity

row,Sequence,polyreactivity (PSR sort gate)
1,QVQLVESGGGLVQAGGSLRLSCAASGSTYYPYAMGWSRQAPGKEWQFVAAITWSGGSTYADSVKGRFTISRDNAKNTVNLQMNSLKPEDTAGYYCAAQPFVIDGGYRGDYWGQGTQETVSS,low polyreactivity
2,QVQLVESGGGLVQAGGSLSLSCAASGRTFSANTMGWSRQAPGKERELVAAISKSGGSTYYADSVKGRFTISRDNAKNTVYLQMNSLKPEDTAVYYCAARTSGYWYSYGSWGQGTQVTVSS,high polyreactivity
3,QVQLVESGGGLVQAGGSLRLSCAASGFTFYRYAMGWYRQAPGKERELVAAISRTGGSTYYADSVKGRFTISRDNAKNTVYLQMNSLKPEDTAVYYCAAERKARTSWYGAASRYYYWGQGTQVTVSS,high polyreactivity
4,QFQLVESGGGLVQAGGSLRVSSAASGITLPYYAMGWYRQAPGKDRELVAGISSRGGSTYYADSVKGRFTISRDNAKNTVYLQMNSLKPEDTAVYYCAAKVASTRLGPAYGYWGQGTQVTVSS,high polyreactivity
5,QVQLVESGGGLVQAGGSLRLSCAASGFTFVYYAKGWYRQAPGKERELVATISGNGGRTYYADSVKGRFTISRDNAKNTVYLQMNSLKPEDTAVYYCAALLYIRSVGYDYWGQGTQVTVSS,low polyreactivity
6,QVQLVESGGGLVQAGGSLRLSCAASGITFVYYTMGWYRQAPGKERELVASITWDGRSTYYADSVKGRFTISRDNAKNTVYLQMNSLKPEDTAVYYCNRDRVSGGKYNYWGQGTQVTVSS,low polyreactivity
7,QVQLVESGGGLVQAGGSLRLSCAASGRISQHNAMGWYRQAPGKERELVAAISWIGTSTYYADSVKGRFTISRDNAKNTVYLQMNSLKPEDTAVYYGWSTRGPPYIYLNYNYWGQGTQVTVSS,low polyreactivity
8,QVQLVESGGGLVQAGGSLRLSCAASGSIFARYAIGWYRQAPGKERELVAAISSDGSTYYADSVKGRFTISRDNAKNTVYLQMNSLKPEDTAVYYCAARAFYYAGDWYGYWGQGTQVTVSS,high polyreactivity
9,QVQLVESGGGLVQARGSLRLICAASGRTFEHNSMGWYRQAPGKERELVARITSGGRTYYADSVKGRFTISRDNAKNTVYLQMNSLKPEDTAVYYCATVGRGYDERHNYWGQGTQVTVSS,high polyreactivity
10,QVQLVESGGGLVQAGGSLRLSSAASGRIFPGYSMGWYRQAPGKERELVASISRTGRTNYADSVKGRFTNSRDNAKNTVYLPMHSLKPEDTAVYYCAAGIVVTGYDYWGQGTQVSVSS,low polyreactivity
11,QGQHAESGGGLVQAGGSLRLTCAASGFTFVYYPMGWYRQATGKERELVAAISGRGGSTYYADSVKGRFTISRDNAKNTVFLQMNSMKPEDTAVYYCAADAYESGNWEANGYWGQGTQVSVSS,low polyreactivity
12,QDQLVESGGGLVQAGGSLRLSCAASGIIIVAYAMGWYRQAPGKERELVAAITVSGARTYYADSVKGRFTISRDNAKITVYFQMNSLKPEDTAVYYCAARYAGGGVLGHGYWGQGTQVTVSS,high polyreactivity
13,QVQLVESGGVLVQAGGSLRLSCAASGITLPVYGMGWYRQAPGKERELVAVIDIVGITNYADSVKGRFTISRDNAKNTVYLQMNSLNPEDTAVYYCAKRYVYIADGGEYYYWGQGTQVTVSS,low polyreactivity
14,QVQLVESGGGLVQAGGSLRLSCAASGSIFKGYAMGRYIQAPGKERELVAAISSSGGSTYYADSVKGRFTISRDNAKNTVYLQMNSLKPEDTAVYYCNTDRYYTYDYLGQGTQVTVSS,low polyreactivity
15,QVQLVESGGGLVQAGGSLRLSCAASGSTFKSYTMGWYRPAPGKERELVAAISGSGGRTYYADSVKGRFTISRDNAKNTVYLQMNSLKPEDTAVYYCAATGPYGFYWGQGTQVTVSS,high polyreactivity
16,QVQLVESGGGLVQAGGSLRLSCAASGFIFSYYAMGWYRQAPGKERELVAAISSSGSRTYYADSVKGRFTISRDNAKNTVYLQMNSLKPEDTAVYYCAARGAAKYGYWGQGTQVTVSS,high polyreactivity
17,QVQLVESGGGLVQAGGSLRLSCAASGFTFERYAMGWYRQAPGKERELVAAITGSGGSTYYADSVKGRFTISRDNAKTTVYLQMNSLKPEDTAVYYCADYSAYYGCDYWGQGTQVTVSS,low polyreactivity
18,QVQIVESGGGLVQAGGSLRLSCAASGSTFEVNAMGWYRQAPGKERELVAVITSGGSTNYADSVKGPFTISRDNAKNTVYLQMNSLKPEDTAVYYCAKDSRTLEDYWGQGTQVTVSS,low polyreactivity
19,QVQLVESGGGLVQAGGSLRLSCAASGSIFAINAMGWYRQAPGKERELVAGITSGGSTYYADSVKGRFTISRDNAKNTVYLQMNSLKPEDTAVYYCAVQVVRSWLVTYYYWGQGTQVTVSS,high polyreactivity
20,QVQLVESGGGIVQAGGSLRFSCAASGGTFYRYAMGWYRLAPGNERELVAAISSSGGSTYYAVSVKGRFTISRDNAKNTVYLQMNSLKPEDTAVYYCAAYSFQSHNFDYWGQGSQVTVSS,high polyreactivity
21,QVQLVASGGGLVHAGASLRLSCAASGRIFTGNVMGWYRQAHWKERELVAAISVSGGRTYYADSVKGRFTISRDYAKNTVYLQMNSLKPVDSAVYYCNARYSRVWYGGDYWGQGTQVTVSS,high polyreactivity
